Columns and labels:
[1] = target: recombinant Myc-Mm_RanQ69L(GTP) (Mus musculus, UniProt P62827 1-216, Q69L); assay: pull-down; purified GST-Mm_Bt (2.8 μg) on glutathione-Sepharose beads incubated with purified Myc-RanQ69L (5 μg) loaded with 2 mM GTP, binding buffer, 4 °C, 2 h; conditions: both partners purified
GST-Mm_RanQ69L = GST-Mm_RanQ69L (Mus musculus, UniProt P62827 1-216, Q69L); assay: pull-down; competition: 0.1, 1, 10 μg recombinant Mm_Bt added to 10 μg GST-RanQ69L on glutathione beads in embryo lysate holding FLAG-importin β; read-out is the importin β pulled down; conditions: both partners purified

| Binder | binding result [1] | binding result (GST-Mm_RanQ69L) |
| --- | --- | --- |
| GST-Mm_Bt (domain or fragment) PVPPRLLTEEEYRIQGEVETQKALQELREFCNSPECSAWKTISRIQSPKRFADFVEGSFHLTPNEVSVHEQEYGLGSIFTQDEELSSEEEGSEYPTFTQNNFLT | binds | – |
| recombinant Mm_Bt (domain or fragment, source: recombinant) PVPPRLLTEEEYRIQGEVETQKALQELREFCNSPECSAWKTISRIQSPKRFADFVEGSFHLTPNEVSVHEQEYGLGSIFTQDEELSSEEEGSEYPTFTQNNFLT | – | binds |

— article PMC4422613, “The Inner Nuclear Membrane Protein Nemp1 Is a New Type of RanGTP-Binding Protein in Eukaryotes” (PLoS ONE, 2015)
